Patent publication US12180286B2, “Anti-peripheral lymph node addressin antibodies and uses thereof” (The Brigham and Women's Hospital, Inc., priority 2019, dated 2024)

B1: MHA112: anti-PNAd monoclonal antibody, mouse IgM, VH SEQ ID NO:2 and VL SEQ ID NO:7 (antibody, V domains shown)
VH: QVQLKESGPGLVAPSQSLSITCTVSGFSLTSYGVDWVRQPPGKGLEWLGVIWGGGSTNYNSALMSRLSISKDNSKSQVFLKMNSLQTDDTAMYYCAKHSKGGYFDVWGTGTTVTVSS
VL: EIVLTQSPAITAASLGQKVTITCSASSSVSYMHWYQQKSGTSPKPWIYEISKLASGVPARFSGSGSGTSYSLTISSMEAEDAAIYYCQQWNYPLITFGAGTKLELK
modifications: mouse IgM constant regions; MHA112 Heavy chain; MHA112 Light chain

Tests used:
4T1 breast tumor cells = test: 4T1 breast tumor growth model; assay type: in vivo, BALB/c-WT mice; details: equal to 160 ng free taxol every two days; n=12
Procedure: Mice were anesthetized with isoflurane and underwent subcutaneous injection with 4T1 breast tumor cells in the mammary glands (1×10^5 cells per mouse). Starting at 9 days post-implantation, free Taxol or MHA112-Taxol were administered every other day intraperitoneally for 24 days. Tumor growth was monitored two times per week by digital caliper.

[1] = test system: 4T1 tumor-draining lymph nodes (TDLNs); test: Immunostaining of 4T1 tumor-draining lymph nodes (TDLNs); assay type: in vivo, mice; details: 4T1 TDLNs, fluorescence micrographs
Description: Thus, the effect of the LN delivery of MHA112 in the tumor population in the LN was investigated. The extent of MHA112's ability to restore the overall structure of LN was also investigated. […] 4T1 tumor-draining lymph nodes (TDLNs) were cut by cryo-sectioning and stained with anti-HEV (sc-19602, SCBT), anti-LYVE1 (ab14917, Abcam), anti-Pan-Cytokeratin (C2931, Sigma), anti-collagen I (ab34710, Abcam), anti-collagen IV (ab6586, Abcam), and anti-laminin (ab11575, Abcam). […] The stained tissue sections were visualized using an EVOS™ FL Auto 2 Imaging System. […] The structure changes of TDLNs was also examined.

[2] = test system: Panc02 pancreas tumor cells; test: Panc02 pancreas tumor model, survival; assay type: in vivo, mice; details: 160 ng every other day intraperitoneally for 20 days, starting 4 hours post-implantation
Procedure: Mice were anesthetized with isoflurane, and Panc02 pancreas tumor cells were gently injected in pancreas of mice. Two million cells (2×10^6 cells) were injected per mouse for Panc02 tumor model. Starting 4 hours post-implantation, 160 ng of free Taxol or MHA112-taxol were administered every other day intraperitoneally for 20 days. Survival was monitored every day.
(§1) Glutaric anhydride (100 mg, Sigma-Aldrich) and taxol (33 mg, LC laboratories) were prepared in a 4 mL vial dried under high vacuum for 24 hours and dissolved in 1 mL of pyridine. The solution was stirred at room temperature under Ar atmosphere for 2 hours. The reaction was quenched by removal of solvent under high vacuum for 2 hours. 2′-Glutaryl taxol was purified by a reversed phase HPLC (Phenomenex Luna 5 μm C18 250×10.0 mm, flow rate 2 mL/min, UV 250 nm detection) with a gradient solvent system (15% to 75% ACN/H2O with 0.1% formic acid for 40 minutes). 2′-glutaryl taxol (0.2 mg) dissolved in DMSO (Thermo Scientific Fisher) was activated with 1-ethyl-3-(3-dimethylaminopropyl)carbodiimide hydrochloride (EDC, 0.4 mg, Sigma-Aldrich) and Sulfo-NHS (N-hydroxysulfosuccinimide) (1.1 mg, Thermo Scientific Fisher) for 15 minutes at room temperature in MES buffer (pH 6.0, Thermo Scientific Fisher) (final solution; ˜1 mL in 10% DMSO). The EDC was quenched by 2-mercaptoethanol (1.4 μL, Sigma-Aldrich) for 10 min. […]

4T1 tumor cell lines = test: 4T1 breast tumor liver portal vein metastasis model, survival; assay type: in vivo, mouse; details: 160 ng every other day intraperitoneally for 20 days, starting 4 hours post-implantation
Procedure: To investigate the effect of MHA112-Taxol on tumor metastasis, 4T1 tumor cell lines were gently injected into the portal vein (1×10^4 cells per mouse) of mouse liver. Starting 4 hours post-implantation, 160 ng of free Taxol or MHA112-taxol were administered every other day intraperitoneally for 20 days. Survival was monitored every day.
as §1

[3] = test system: high endothelial venules (HEVs) of human tonsil; test: Immunofluorescence staining of HEVs in human tonsil section; assay type: binding; details: hybridoma supernatant
Description: (§2) Two of GlcNAc6ST1/2/4 triple knock-out (KO) mice, which lack the peripheral lymph node vascular addressin (PNAd), were immunized with Chinese hamster ovary (CHO) cell lines expressing CD34 decorated with sialyl Lewis^X (sLeX)-type glycans. MHA112 single hybridoma clone was identified by HEV immunofluorescence staining. The supernatant of MHA112 hybridoma culture was collected and used to stain mice lymph nodes (LNs) and human tonsil section.
(§3) Two of GlcNAc6ST1/2/4 triple KO mice, which lack the PNAd, were immunized with CHO cell lines expressing CD34 decorated with sLeX-type glycans. After the 3rd immunization, mice were sacrificed for hybridoma. Around 500 single clones were screened by HEV staining. Monoclonal antibody MHA112 against mice and human HEV was identified.
(§4) Fresh LNs were embedded in tissue-freezing medium. Cryostat sections (8 μm thick) were cut for imaging by fluorescence confocal microscopy. MHA112 was used for tissue staining as primary antibody. Alexa Fluor 488-conjugated anti-mouse IgM was used as secondary antibody. DAPI was used to stain the cell nuclei.

[4] = test system: high endothelial venules (HEVs) of mice lymph nodes (LNs); test: Immunofluorescence staining of HEVs in mice lymph node sections; assay type: binding; details: hybridoma supernatant
Description: as §2, §3, §4

[5] = test system: CHO cells expressing PNAd (CHO-PNAd); test: Cell-based ELISA binding affinity
Procedure: To compare the affinity of MHA112 with MECA79, cell-based ELISA was performed. CHO cells expressing PNAd (CHO-PNAd) (2×10^4) were coated onto 96-well plates and incubated overnight at 37° C. After five washes with phosphate buffered saline (PBS), the plates were fixed with 1% paraformaldehyde (PFA) and blocked with 3% bovine serum albumin (BSA). MECA79 and MHA112 were serially diluted from 1 ng/ml to 300 μg/ml. After five washes in PBST, horseradish peroxidase-(HRP-)conjugated goat anti-mouse and anti-rat secondary antibodies were added at a 1:10,000 dilution and incubated for 1 hour at room temperature. Binding was detected with the addition of TMB (3,3′,5,5′-tetramethylbenzidine) substrate, and the reaction was stopped by adding TMB Stop Solution (N600, Thermo Scientific). Absorbance signals were read at 450 nm.

T cells homing to LNs = test: Blocking of labeled T cell homing to LNs (flow cytometry); assay type: in vivo, C57BL/6 mice; details: 200 μg i.p. 2 hours before T cell injection, 19 hours after transfer
Procedure: To test whether MHA112 mAb can block T cells homing to LNs in vivo, T cells were labeled with fluorescein isothiocyanate (FITC) florescence dye and transferred into naïve mice, and their distribution assessed 19 hours later. MHA112 (anti-HEVs) reduced the number of transferred T cells that entered Axillary (Axi), Inguinal (Ing) and Brachial (Bra) LN by over 25% (FIG. 4). […] Labeled T cells that entered spleen were not changed in three groups (FIG. 4).
Spleens were harvested from three C57BL/6 mice. Single cell suspensions were prepared, and cells were positively enriched for T cells with MACS reagents and columns (Miltenyi Biotech, Bergisch Gladbach, Germany) according to the manufacturer's instructions. For injection, T cells were labeled with CellTracker Green (Thermo Fisher) and resuspended in sterile saline, and 5 million T cells were injected in 100 μl each mouse. Blocking antibodies MHA112 and MECA79 were administered intraperitoneally (i.p.) at 200 μg in 200 μl per mouse 2 hours before T cell injection. 19 hours after transfer, mice were euthanized and LNs were processed for flow cytometry.

| Molecule | growth of 4T1 mouse breast tumors versus control group treated with PBS (4T1 breast tumor cells) | expansion of HEVs and lymphatics (LYVE1) in TDLNs [1] | median survival time (MST) [2] | median survival time (MST) (4T1 tumor cell lines) | staining of HEVs structure [3] | staining of HEVs structure [4] | binding affinity higher than MECA79 [5] | Kd ([5]; fitting curves, absorbance 450 nm) | reduction of number of transferred T cells that entered Axillary, Inguinal and Brachial LN (T cells homing to LNs) | reduction of number of T cells that entered mesenteric LNs (T cells homing to LNs; of PBS controls) |
| --- | --- | --- | --- | --- | --- | --- | --- | --- | --- | --- |
| CC(=O)O[C@H]1C(=O)[C@@]2(C)[C@H]([C@H](OC(=O)c3ccccc3)[C@]3(O)C[C@H](OC(=O)[C@H](O)[C@@H](NC(=O)c4ccccc4)c4ccccc4)C(C)=C1C3(C)C)[C@]1(OC(C)=O)CO[C@@H]1C[C@@H]2O [free Taxol, taxol] | significantly slower growth | expanded | 32 days | 37 days |  |  |  |  |  |  |
| B1 |  |  |  |  | stained | stained | 30% | 970 pM | over 25% | around 12% |
